Experimental data reported in article PMC6544321, “Structural insights into histone chaperone Chz1-mediated H2A.Z recognition and histone replacement” (PLoS Biology, 2019).

B1: middle and C-terminal region of Chz1 (Chz1 64-153) (domain or fragment, S. cerevisiae (budding yeast), UniProt P40019 64-153, looked up)
chain: TVEDSESDMDDAKLDALMGNEGEEEEDDLAEIDTSNIITSGRRTRGKVIDYKKTAEELDKKEPSTGSKDDVGYGEKEEDDEDEEDDDFKE
notes: Chz1, budding yeast, residues 64-153; only residues 142-153 are seen in the crystal structure; also called Chz1-MC; Chz1-MC WT; source: E. coli BL21-CodonPLUS(DE3)-RIPL, purified (Ni-NTA, HiTrap Q)
B2: single chain H2A-H2B with H2A P50A (other)
chain: RKETYSSYIYKVLKQTHPDTGISQKSMSILNSFVNDIFERIATEASKLAAYNKKSTISAREIQTAVRLILPGELAKHAVSEGTRAVTKYSSSTQAQSRSAKAGLTFPVGRVHRLLRRGNYAQRIGSGAAVYLTAVLEYLAAEILELAGNAARDNKKTRIIPRHLQLAIRNDDELNKLLGNVTIAQGGVLPNI
B3: single chain H2A-H2B with H2A N91G (other)
chain: MRKETYSSYIYKVLKQTHPDTGISQKSMSILNSFVNDIFERIATEASKLAAYNKKSTISAREIQTAVRLILPGELAKHAVSEGTRAVTKYSSSTQAQSRSAKAGLTFPVGRVHRLLRRGNYAQRIGSGAPVYLTAVLEYLAAEILELAGNAARDNKKTRIIPRHLQLAIRGDDELNKLLGNVTIAQGGVLPNI
B4: single chain H2A-H2B with H2A NKLGNV→DSIRA (other)
chain: RKETYSSYIYKVLKQTHPDTGISQKSMSILNSFVNDIFERIATEASKLAAYNKKSTISAREIQTAVRLILPGELAKHAVSEGTRAVTKYSSSTQAQSRSAKAGLTFPVGRVHRLLRRGNYAQRIGSGAPVYLTAVLEYLAAEILELAGNAARDNKKTRIIPRHLQLAIRNDDELDSLIRATIAQGGVLPNI
B5: yeast single chain H2A-H2B (other)
chain: RKETYSSYIYKVLKQTHPDTGISQKSMSILNSFVNDIFERIATEASKLAAYNKKSTISAREIQTAVRLILPGELAKHAVSEGTRAVTKYSSSTQAQSRSAKAGLTFPVGRVHRLLRRGNYAQRIGSGAPVYLTAVLEYLAAEILELAGNAARDNKKTRIIPRHLQLAIRNDDELNKLLGNVTIAQGGVLPNI
modifications: Limits and order (H2B then H2A) are taken by homology from scZB in 2JSS/6AE8. The paper's H2B numbers are mature (+1 on precursor) and its H2A numbers are precursor. H2A.1 paralogue assumed.
B6: middle region of Chz1 (Chz1 64-124) (domain or fragment, S. cerevisiae (budding yeast), UniProt P40019 64-124, looked up)
chain: TVEDSESDMDDAKLDALMGNEGEEEEDDLAEIDTSNIITSGRRTRGKVIDYKKTAEELDKK
notes: Chz1, budding yeast, residues 64-124; also called Chz1-M; source: E. coli BL21-CodonPLUS(DE3)-RIPL, purified (Ni-NTA, HiTrap Q)

How the values were obtained:
Conditions in all cases: both partners purified
[1] = target: B4; test: ITC; MicroCal VP-ITC, 25°C, 20 mM MES (pH 6.0), 0.5 M NaCl; chaperone (50 or 150 μM) injected into histones (5 μM scZB or 15 μM scAB and mutants) in the cell; one-site fit
[2] = target: B5; test: as above
[3] = target: B3; test: as above
[4] = target: B2; test: as above
[5] = target: B1; test: as above
[6] = target: T1, Swc2-Z, the 1–136 segment of the Swc2 subunit of the SWR1 complex (yeast); test: ITC; 0.2 M NaCl (Table 1); Swc2-Z or Chz1-M injected into single-chain histone dimers; otherwise as the ITC methods (25°C, 20 mM MES pH 6.0)
T1 construct: SWR complex protein 2 (Swc2), subunit of the yeast SWR1 complex, residues 1-136

[7] = target: B6; test: as above
[8] = target: B6; test: ITC; MicroCal VP-ITC, 25°C, 20 mM MES (pH 6.0), 0.5 M NaCl; chaperone (50 or 150 μM) injected into histones (5 μM scZB or 15 μM scAB and mutants) in the cell; one-site fit
[9] = target: B5; test: ITC; 0.2 M NaCl (Table 1); Swc2-Z or Chz1-M injected into single-chain histone dimers; otherwise as the ITC methods (25°C, 20 mM MES pH 6.0)

In the case of B1, the “stoichiometry N” value [1] is reported as 0.9 sites, the “stoichiometry N” value [2] is reported as 0.9 sites and the “stoichiometry N” value [3] is reported as 1 sites. For the same binder, the “stoichiometry N” value [4] was 1 sites.

B2 gave a Kd [5] of 530 ± 40 nM.

B3 showed a Kd [5] of 420 ± 20 nM.

B4 showed a Kd [5] of 5080 ± 180 nM.

B5 showed a Kd [6] of 200 ± 70 nM, a Kd [7] of 300 ± 2 nM and a Kd [5] of 5020 ± 420 nM. It also gave a Kd [8] of 7870 ± 350 nM.

With B6 the “stoichiometry N” value [9] was 1 sites and the “stoichiometry N” value [2] was 0.7 sites.
